Source: patent publication US20210300974, “ARTIFICIAL TRANSCRIPTION FACTORS COMPRISING A SLIDING DOMAIN AND USES THEREOF” (THE BROAD INSTITUTE, INC., published 2021)
Primed or numbered codes have the meaning given here. Ends that are not written are not given here. TMR(3) = tetramethylrhodamine (TMR) label conjugated to the Cys side chain

T1: TMR-beta3(RRRK)-NH2 (synthetic)
T1 sequence: RRRK

T2: TMR-RRRK-NH2 (synthetic)
T2 sequence: RRRK

T3: TMR-KKKK-NH2 (synthetic)
T3 sequence: KKKK

T4: TMR-beta3(KRRR)-NH2 (synthetic)
T4 sequence: KRRR

T5: TMR-(CH2)5-KRRR-NH2 (synthetic)
T5 sequence: KRRR

T6: TMR-RRRR (C-terminal carboxylate) (synthetic)
T6 sequence: RRRR

T7: TMR-RRRR-NH2 (synthetic)
T7 sequence: RRRR

T8: TMR-(RL)4-NH2 (synthetic)
T8 sequence: RRRR

T9: TMR-KRRR-NH2 (synthetic)
T9 sequence: KRRR

T10: TMR-KRRR (C-terminal carboxylate) (synthetic)
T10 sequence: KRRR

T11: KRRRC(-TMR)-NH2 (synthetic)
T11 chain: KRRRC(TMR(3))-NH2

B1: 30-mer dsDNA (dsDNA)
DNA 1: GACGACTAGGACGACGACGAGGATGACGAC
DNA 2: GTCGTCATCCTCGTCGTCGTCCTAGTCGTC

Columns and labels:
[1] = system: T1, TMR-beta3(RRRK)-NH2 (synthetic); experiment: FP; settings: 2 mM NaCl, pH 7.4
[2] = system: T2, TMR-RRRK-NH2 (synthetic); experiment: FP; settings: 2 mM NaCl, pH 7.4
[3] = system: T3, TMR-KKKK-NH2 (synthetic); experiment: FP; settings: 2 mM NaCl, pH 7.4
[4] = system: T4, TMR-beta3(KRRR)-NH2 (synthetic); experiment: FP; settings: 2 mM NaCl, pH 7.4
[5] = system: T5, TMR-(CH2)5-KRRR-NH2 (synthetic); experiment: FP; settings: 2 mM NaCl, pH 7.4
[6] = system: T6, TMR-RRRR (C-terminal carboxylate) (synthetic); experiment: FP; settings: CITED (Xiong et al); pH 7.4; cited from earlier work
[7] = system: T7, TMR-RRRR-NH2 (synthetic); experiment: FP; settings: 2 mM NaCl, pH 7.4
[8] = system: T8, TMR-(RL)4-NH2 (synthetic); experiment: FP; settings: 2 mM NaCl, pH 7.4
[9] = system: T9, TMR-KRRR-NH2 (synthetic); experiment: FP; settings: 2 mM NaCl, pH 7.4
[10] = system: T10, TMR-KRRR (C-terminal carboxylate) (synthetic); experiment: FP; settings: CITED (Xiong et al); pH 7.4; cited from earlier work
[11] = system: TMR-(RS)4-NH2 (synthetic); experiment: FP; settings: 2 mM NaCl, pH 7.4
[12] = biological target: T11, KRRRC(-TMR)-NH2; experiment: FP; 2 mM NaCl, pH 7.4; text p253 states 46 ± 9; settings: tags: TMR on Cys; free N-terminal amine; C-terminal amide

Molecule | Kd [1] | Kd [2] | Kd [3] | Kd [4] | Kd [5] | Kd [6] | Kd [7] | Kd [8] | Kd [9] | Kd [10] | Kd [11] | Kd [12]
GACGACTAGGACGACGACGAGGATGACGAC (double strand) [30-mer dsDNA] | 49 nM | 28 nM | 53 nM | 41 nM | 46 nM | 236 nM | 31 nM | 13 nM | 46 nM | 197 nM | 129 nM | –
B1 | – | – | – | – | – | – | – | – | – | – | – | 54 nM
